Measurements from the supplement of paper PMC9112550, “Optimization of the antimicrobial peptide Bac7 by deep mutational scanning” (BMC Biology, 2022).

System: Escherichia coli TOP10
Test: shrunken log2 fold change of peptide-encoding DNA abundance (4.5 h post-induction vs induction); higher = less antimicrobial activity (less host growth inhibition)
Details: time post-induction: 4.5 h; library: site-saturation at positions 5, 18, 19, 20
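Also: peptides expressed intracellularly from a pBAD plasmid library in pooled LB shake-flask culture, induced with 0.3% L-arabinose, DNA abundance read by NGS, three biological replicates, DESeq2 with apeglm shrinkage.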

| Sequence | shrunken log2 fold change |
| --- | --- |
| RRIRWRPPRLPRPRPRPCFIPRP | -0.423 |
| RRIRWRPPRLPRPRPRPMFYPRP | -0.395 |
| RRIRWRPPRLPRPRPRPRQEPRP | 0.0591 |
| RRIRTRPPRLPRPRPRPRNMPRP | -0.493 |
| RRIRLRPPRLPRPRPRPRTNPRP | 0.113 |
| RRIRDRPPRLPRPRPRPTDNPRP | -0.5 |
| RRIRVRPPRLPRPRPRPCNIPRP | 0.0254 |
| RRIRYRPPRLPRPRPRPAMDPRP | -0.256 |
| RRIRERPPRLPRPRPRPQMEPRP | 0.00522 |
| RRIRFRPPRLPRPRPRPKLYPRP | -0.481 |
| RRIRQRPPRLPRPRPRPQTYPRP | -0.958 |
| RRIRLRPPRLPRPRPRPNFTPRP | -0.501 |
| RRIRYRPPRLPRPRPRPYGKPRP | -1.27 |
| RRIRGRPPRLPRPRPRPLWRPRP | 0.625 |
| RRIRYRPPRLPRPRPRPMYFPRP | -0.48 |
| RRIRPRPPRLPRPRPRPGYKPRP | -0.141 |
| RRIRIRPPRLPRPRPRPVEDPRP | -0.158 |
| RRIRGRPPRLPRPRPRPRNFPRP | 0.197 |
| RRIRSRPPRLPRPRPRPPDDPRP | 0.488 |
| RRIRCRPPRLPRPRPRPKTFPRP | -0.138 |
| RRIRSRPPRLPRPRPRPGMPPRP | -0.122 |
| RRIRHRPPRLPRPRPRPHCFPRP | -0.312 |
| RRIRSRPPRLPRPRPRPKNDPRP | -0.372 |
| RRIRGRPPRLPRPRPRPVFQPRP | 0.519 |
| RRIRRRPPRLPRPRPRPGSNPRP | 0.0402 |

| Sequence | shrunken log2 fold change |
| --- | --- |
| RRIRNRPPRLPRPRPRPTASPRP | 1.61 |
| RRIRLRPPRLPRPRPRPFYNPRP | -0.584 |
| RRIRRRPPRLPRPRPRPPVIPRP | -0.139 |
| RRIRERPPRLPRPRPRPWLPPRP | -0.0302 |
| RRIRERPPRLPRPRPRPRTGPRP | 0.0617 |
| RRIRKRPPRLPRPRPRPFSPPRP | -0.102 |
| RRIRPRPPRLPRPRPRPILAPRP | 0.273 |
| RRIRARPPRLPRPRPRPVDLPRP | 0.174 |
| RRIRKRPPRLPRPRPRPEWCPRP | 0.278 |
| RRIRKRPPRLPRPRPRPDLTPRP | -0.000918 |
| RRIRRRPPRLPRPRPRPPLFPRP | 0.464 |
| RRIRFRPPRLPRPRPRPLRKPRP | 0.465 |
| RRIRTRPPRLPRPRPRPTWDPRP | 0.478 |
| RRIRCRPPRLPRPRPRPRCDPRP | -0.047 |
| RRIRQRPPRLPRPRPRPSTRPRP | 0.00434 |
| RRIRIRPPRLPRPRPRPSMWPRP | -0.178 |
| RRIRCRPPRLPRPRPRPRFRPRP | 0.201 |
| RRIRARPPRLPRPRPRPAPRPRP | 1.02 |
| RRIRTRPPRLPRPRPRPQCEPRP | -0.0143 |
| RRIRIRPPRLPRPRPRPFTSPRP | -0.475 |
| RRIRIRPPRLPRPRPRPMFTPRP | -0.212 |
| RRIRDRPPRLPRPRPRPNPDPRP | -0.0924 |
| RRIRLRPPRLPRPRPRPNNQPRP | -0.287 |
| RRIRCRPPRLPRPRPRPYMSPRP | -0.366 |
| RRIRDRPPRLPRPRPRPYVRPRP | -0.402 |

| Sequence | shrunken log2 fold change |
| --- | --- |
| RRIRDRPPRLPRPRPRPDRIPRP | -0.0411 |
| RRIRHRPPRLPRPRPRPAYMPRP | 0.0834 |
| RRIRCRPPRLPRPRPRPLPGPRP | 0.262 |
| RRIRLRPPRLPRPRPRPCMCPRP | -0.967 |
| RRIRWRPPRLPRPRPRPANCPRP | 0.0179 |
| RRIRSRPPRLPRPRPRPFGDPRP | -0.0872 |
| RRIRNRPPRLPRPRPRPGTGPRP | -0.127 |
| RRIRCRPPRLPRPRPRPWTCPRP | -0.323 |
| RRIRHRPPRLPRPRPRPRSAPRP | 0.356 |
| RRIRHRPPRLPRPRPRPHQIPRP | 0.0658 |
| RRIRCRPPRLPRPRPRPTWYPRP | -0.28 |
| RRIRQRPPRLPRPRPRPCNIPRP | -0.646 |
| RRIRRRPPRLPRPRPRPMYFPRP | -0.21 |
| RRIRARPPRLPRPRPRPDDFPRP | -0.013 |
| RRIRRRPPRLPRPRPRPCQVPRP | 0.0476 |
| RRIRSRPPRLPRPRPRPGMIPRP | -0.296 |
| RRIRCRPPRLPRPRPRPAMLPRP | 0.0443 |
| RRIRCRPPRLPRPRPRPDFNPRP | -0.242 |
| RRIRVRPPRLPRPRPRPKDIPRP | -0.642 |
| RRIRMRPPRLPRPRPRPYILPRP | -1.08 |
| RRIRWRPPRLPRPRPRPLFRPRP | -0.0807 |
| RRIRWRPPRLPRPRPRPCNVPRP | -0.00213 |
| RRIRQRPPRLPRPRPRPDRSPRP | 0.0153 |
| RRIRLRPPRLPRPRPRPVEYPRP | -0.294 |
| RRIRSRPPRLPRPRPRPWLHPRP | -0.254 |

| Sequence | shrunken log2 fold change |
| --- | --- |
| RRIRDRPPRLPRPRPRPWDPPRP | 0.0959 |
| RRIRHRPPRLPRPRPRPCLLPRP | -0.342 |
| RRIRGRPPRLPRPRPRPMRHPRP | 0.559 |
| RRIRKRPPRLPRPRPRPWTYPRP | 0.0938 |
| RRIRARPPRLPRPRPRPQYDPRP | -0.018 |
| RRIRLRPPRLPRPRPRPHTSPRP | -0.112 |
| RRIRQRPPRLPRPRPRPACGPRP | 0.217 |
| RRIRIRPPRLPRPRPRPPEVPRP | -0.173 |
| RRIRRRPPRLPRPRPRPTTSPRP | 0.591 |
| RRIRKRPPRLPRPRPRPVSEPRP | 0.189 |
| RRIRLRPPRLPRPRPRPWPVPRP | 0.191 |
| RRIRDRPPRLPRPRPRPYPSPRP | -0.167 |
| RRIRRRPPRLPRPRPRPDSEPRP | 0.036 |
| RRIRRRPPRLPRPRPRPPSFPRP | 0.251 |
| RRIRMRPPRLPRPRPRPLRNPRP | 1.17 |
| RRIRWRPPRLPRPRPRPREPPRP | 0.35 |
| RRIRCRPPRLPRPRPRPGFIPRP | 0.067 |
| RRIRDRPPRLPRPRPRPNAWPRP | -0.0496 |
| RRIRGRPPRLPRPRPRPWHLPRP | -0.188 |
| RRIRYRPPRLPRPRPRPCHLPRP | -0.019 |
| RRIRQRPPRLPRPRPRPCMEPRP | -0.1 |
| RRIRDRPPRLPRPRPRPDWEPRP | 0.0165 |
| RRIRDRPPRLPRPRPRPSNRPRP | -0.052 |
| RRIRQRPPRLPRPRPRPPDTPRP | 0.103 |
| RRIRYRPPRLPRPRPRPCQGPRP | -0.0126 |

| Sequence | shrunken log2 fold change |
| --- | --- |
| RRIRYRPPRLPRPRPRPNIDPRP | -1.61 |
| RRIRHRPPRLPRPRPRPNMKPRP | -0.855 |
| RRIRFRPPRLPRPRPRPDPTPRP | 0.0215 |
| RRIRYRPPRLPRPRPRPKEQPRP | 0.00489 |
| RRIRNRPPRLPRPRPRPPYNPRP | -0.627 |
| RRIRARPPRLPRPRPRPCRWPRP | 0.26 |
| RRIRLRPPRLPRPRPRPPTCPRP | 0.192 |
| RRIRDRPPRLPRPRPRPKDCPRP | 0.173 |
| RRIRFRPPRLPRPRPRPIRQPRP | -0.297 |
| RRIRYRPPRLPRPRPRPHACPRP | 0.0039 |
| RRIRMRPPRLPRPRPRPISVPRP | 0.103 |
| RRIRQRPPRLPRPRPRPEFIPRP | -0.163 |
| RRIRQRPPRLPRPRPRPPNQPRP | 0.448 |
| RRIRDRPPRLPRPRPRPDNCPRP | -0.000924 |
| RRIRRRPPRLPRPRPRPWCDPRP | 0.0743 |
| RRIRGRPPRLPRPRPRPNMNPRP | 0.255 |
| RRIRKRPPRLPRPRPRPKHIPRP | -0.0252 |
| RRIRTRPPRLPRPRPRPVMRPRP | -0.0406 |
| RRIRRRPPRLPRPRPRPMKVPRP | -0.0467 |
| RRIRKRPPRLPRPRPRPEMEPRP | 3.59 |
| RRIRTRPPRLPRPRPRPAHAPRP | 0.0759 |
| RRIRSRPPRLPRPRPRPQWPPRP | 0.121 |
| RRIRCRPPRLPRPRPRPYVKPRP | -0.647 |
| RRIRQRPPRLPRPRPRPDGGPRP | 0.255 |
| RRIRRRPPRLPRPRPRPMRCPRP | 0.384 |

| Sequence | shrunken log2 fold change |
| --- | --- |
| RRIRKRPPRLPRPRPRPPDMPRP | 0.469 |
| RRIRCRPPRLPRPRPRPLVVPRP | -0.347 |
| RRIRRRPPRLPRPRPRPCTQPRP | 0.207 |
| RRIRDRPPRLPRPRPRPLRSPRP | 0.294 |
| RRIRQRPPRLPRPRPRPWRWPRP | -0.0392 |
| RRIRYRPPRLPRPRPRPKPTPRP | 0.278 |
| RRIRYRPPRLPRPRPRPPTNPRP | 0.0849 |
| RRIRGRPPRLPRPRPRPHKCPRP | -0.111 |
| RRIRTRPPRLPRPRPRPAPYPRP | 0.151 |
| RRIRYRPPRLPRPRPRPVKNPRP | -0.381 |
| RRIRNRPPRLPRPRPRPIEWPRP | -0.00176 |
| RRIRGRPPRLPRPRPRPKQQPRP | 0.228 |
| RRIRMRPPRLPRPRPRPCAQPRP | -0.0823 |
| RRIRGRPPRLPRPRPRPTWAPRP | 0.987 |
| RRIRTRPPRLPRPRPRPRHRPRP | 0.0476 |
| RRIRSRPPRLPRPRPRPRMGPRP | 0.234 |
| RRIRCRPPRLPRPRPRPNSYPRP | -0.54 |
| RRIRIRPPRLPRPRPRPGERPRP | -0.0896 |
| RRIRDRPPRLPRPRPRPIWQPRP | 0.211 |
| RRIRQRPPRLPRPRPRPPMWPRP | 0.336 |
| RRIRQRPPRLPRPRPRPRWWPRP | 0.417 |
| RRIRSRPPRLPRPRPRPFHIPRP | -1.07 |
| RRIRLRPPRLPRPRPRPTIWPRP | 0.203 |
| RRIRARPPRLPRPRPRPYCRPRP | -0.885 |
| RRIRKRPPRLPRPRPRPWSHPRP | 0.0601 |
